# Test results as given in IntAct's records for PubMed 25910212.
# B1: Multifunctional procollagen lysine hydroxylase and glycosyltransferase LH3 (Homo sapiens), O60568 (parent)
# chain: MTSSGPGPRFLLLLPLLLPPAASASDRPRGRDPVNPEKLLVITVATAETEGYLRFLRSAEFFNYTVRTLGLGEEWRGGDVARTVGGGQKVRWLKKEMEKYADREDMIIMFVDSYDVILAGSPTELLKKFVQSGSRLLFSAESFCWPEWGLAEQYPEVGTGKRFLNSGGFIGFATTIHQIVRQWKYKDDDDDQLFYTRLYLDPGLREKLSLNLDHKSRIFQNLNGALDEVVLKFDRNRVRIRNVAYDTLPIVVHGNGPTKLQLNYLGNYVPNGWTPEGGCGFCNQDRRTLPGGQPPPRVFLAVFVEQPTPFLPRFLQRLLLLDYPPDRVTLFLHNNEVFHEPHIADSWPQLQDHFSAVKLVGPEEALSPGEARDMAMDLCRQDPECEFYFSLDADAVLTNLQTLRILIEENRKVIAPMLSRHGKLWSNFWGALSPDEYYARSEDYVELVQRKRVGVWNVPYISQAYVIRGDTLRMELPQRDVFSGSDTDPDMAFCKSFRDKGIFLHLSNQHEFGRLLATSRYDTEHLHPDLWQIFDNPVDWKEQYIHENYSRALEGEGIVEQPCPDVYWFPLLSEQMCDELVAEMEHYGQWSGGRHEDSRLAGGYENVPTVDIHMKQVGYEDQWLQLLRTYVGPMTESLFPGYHTKARAVMNFVVRYRPDEQPSLRPHHDSSTFTLNVALNHKGLDYEGGGCRFLRYDCVISSPRKGWALLHPGRLTHYHEGLPTTWGTRYIMVSFVDP
# partner: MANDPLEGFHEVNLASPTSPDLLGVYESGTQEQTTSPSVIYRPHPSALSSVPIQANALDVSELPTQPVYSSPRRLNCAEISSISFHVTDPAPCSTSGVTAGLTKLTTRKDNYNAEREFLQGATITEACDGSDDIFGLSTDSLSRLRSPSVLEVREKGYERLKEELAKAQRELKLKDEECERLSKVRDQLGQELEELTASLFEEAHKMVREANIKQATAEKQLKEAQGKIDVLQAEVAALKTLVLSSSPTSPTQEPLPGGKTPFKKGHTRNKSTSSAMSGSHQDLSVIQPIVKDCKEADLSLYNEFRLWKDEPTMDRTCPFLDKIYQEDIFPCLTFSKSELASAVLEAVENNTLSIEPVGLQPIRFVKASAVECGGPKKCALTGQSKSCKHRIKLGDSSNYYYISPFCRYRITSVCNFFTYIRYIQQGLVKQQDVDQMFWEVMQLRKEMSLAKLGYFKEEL
# B2: E3 ubiquitin-protein ligase Midline-1 (Homo sapiens), O15344 (parent)
# chain: METLESELTCPICLELFEDPLLLPCAHSLCFNCAHRILVSHCATNESVESITAFQCPTCRHVITLSQRGLDGLKRNVTLQNIIDRFQKASVSGPNSPSETRRERAFDANTMTSAEKVLCQFCDQDPAQDAVKTCVTCEVSYCDECLKATHPNKKPFTGHRLIEPIPDSHIRGLMCLEHEDEKVNMYCVTDDQLICALCKLVGRHRDHQVAALSERYDKLKQNLESNLTNLIKRNTELETLLAKLIQTCQHVEVNASRQEAKLTEECDLLIEIIQQRRQIIGTKIKEGKVMRLRKLAQQIANCKQCIERSASLISQAEHSLKENDHARFLQTAKNITERVSMATASSQVLIPEINLNDTFDTFALDFSREKKLLECLDYLTAPNPPTIREELCTASYDTITVHWTSDDEFSVVSYELQYTIFTGQANVVSLCNSADSWMIVPNIKQNHYTVHGLQSGTKYIFMVKAINQAGSRSSEPGKLKTNSQPFKLDPKSAHRKLKVSHDNLTVERDESSSKKSHTPERFTSQGSYGVAGNVFIDSGRHYWEVVISGSTWYAIGLAYKSAPKHEWIGKNSASWALCRCNNNWVVRHNSKEIPIEPAPHLRRVGILLDYDNGSIAFYDALNSIHLYTFDVAFAQPVCPTFTVWNKCLTIITGLPIPDHLDCTEQLP
# partner: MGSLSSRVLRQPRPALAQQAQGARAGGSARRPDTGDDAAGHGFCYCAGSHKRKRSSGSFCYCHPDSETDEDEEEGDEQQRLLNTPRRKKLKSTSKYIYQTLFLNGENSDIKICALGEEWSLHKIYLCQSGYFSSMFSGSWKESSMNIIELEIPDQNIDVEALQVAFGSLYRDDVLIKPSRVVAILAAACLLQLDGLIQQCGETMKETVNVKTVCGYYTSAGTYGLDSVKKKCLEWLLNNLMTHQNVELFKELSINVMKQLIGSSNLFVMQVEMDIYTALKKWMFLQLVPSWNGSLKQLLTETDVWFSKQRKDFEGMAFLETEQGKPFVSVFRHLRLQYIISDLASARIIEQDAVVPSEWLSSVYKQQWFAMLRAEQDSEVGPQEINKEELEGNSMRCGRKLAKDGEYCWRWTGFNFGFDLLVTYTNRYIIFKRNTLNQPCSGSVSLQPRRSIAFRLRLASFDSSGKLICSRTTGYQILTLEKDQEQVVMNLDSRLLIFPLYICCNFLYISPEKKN
# B3: Carbonyl reductase [NADPH] 3 (Homo sapiens), O75828 (parent)
# chain: MSSCSRVALVTGANRGIGLAIARELCRQFSGDVVLTARDVARGQAAVQQLQAEGLSPRFHQLDIDDLQSIRALRDFLRKEYGGLNVLVNNAAVAFKSDDPMPFDIKAEMTLKTNFFATRNMCNELLPIMKPHGRVVNISSLQCLRAFENCSEDLQERFHSETLTEGDLVDLMKKFVEDTKNEVHEREGWPNSPYGVSKLGVTVLSRILARRLDEKRKADRILVNACCPGPVKTDMDGKDSIRTVEEGAETPVYLALLPPDATEPQGQLVHDKVVQNW
# B4: 60 kDa heat shock protein, mitochondrial (Homo sapiens), P10809 (parent)
# chain: MLRLPTVFRQMRPVSRVLAPHLTRAYAKDVKFGADARALMLQGVDLLADAVAVTMGPKGRTVIIEQSWGSPKVTKDGVTVAKSIDLKDKYKNIGAKLVQDVANNTNEEAGDGTTTATVLARSIAKEGFEKISKGANPVEIRRGVMLAVDAVIAELKKQSKPVTTPEEIAQVATISANGDKEIGNIISDAMKKVGRKGVITVKDGKTLNDELEIIEGMKFDRGYISPYFINTSKGQKCEFQDAYVLLSEKKISSIQSIVPALEIANAHRKPLVIIAEDVDGEALSTLVLNRLKVGLQVVAVKAPGFGDNRKNQLKDMAIATGGAVFGEEGLTLNLEDVQPHDLGKVGEVIVTKDDAMLLKGKGDKAQIEKRIQEIIEQLDVTTSEYEKEKLNERLAKLSDGVAVLKVGGTSDVEVNEKKDRVTDALNATRAAVEEGIVLGGGCALLRCIPALDSLTPANEDQKIGIEIIKRTLKIPAMTIAKNAGVEGSLIVEKIMQSSSEVGYDAMAGDFVNMVEKGIIDPTKVVRTALLDAAGVASLLTTAEVVVTEIPKEEKDPGMGAMGGMGGGMGGGMF
# B5: Fibulin-5 (Homo sapiens), Q9UBX5 (parent)
# chain: MPGIKRILTVTILALCLPSPGNAQAQCTNGFDLDRQSGQCLDIDECRTIPEACRGDMMCVNQNGGYLCIPRTNPVYRGPYSNPYSTPYSGPYPAAAPPLSAPNYPTISRPLICRFGYQMDESNQCVDVDECATDSHQCNPTQICINTEGGYTCSCTDGYWLLEGQCLDIDECRYGYCQQLCANVPGSYSCTCNPGFTLNEDGRSCQDVNECATENPCVQTCVNTYGSFICRCDPGYELEEDGVHCSDMDECSFSEFLCQHECVNQPGTYFCSCPPGYILLDDNRSCQDINECEHRNHTCNLQQTCYNLQGGFKCIDPIRCEEPYLRISDNRCMCPAENPGCRDQPFTILYRDMDVVSGRSVPADIFQMQATTRYPGAYYIFQIKSGNEGREFYMRQTGPISATLVMTRPIKGPREIQLDLEMITVNTVINFRGSSVIRLRIYVSQYPF
# partner: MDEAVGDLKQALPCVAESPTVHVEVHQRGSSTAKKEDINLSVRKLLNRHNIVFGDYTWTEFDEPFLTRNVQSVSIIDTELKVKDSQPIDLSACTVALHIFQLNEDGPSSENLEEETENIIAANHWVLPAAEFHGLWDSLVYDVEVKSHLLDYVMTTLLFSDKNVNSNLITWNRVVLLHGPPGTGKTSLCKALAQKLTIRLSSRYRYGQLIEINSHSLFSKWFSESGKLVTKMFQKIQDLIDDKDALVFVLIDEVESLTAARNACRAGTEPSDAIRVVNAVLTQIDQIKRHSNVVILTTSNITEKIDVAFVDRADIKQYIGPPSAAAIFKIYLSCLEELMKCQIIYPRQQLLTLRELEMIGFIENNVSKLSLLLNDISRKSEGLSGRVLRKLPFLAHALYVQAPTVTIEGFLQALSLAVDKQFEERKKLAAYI
# B6: Carbonic anhydrase-related protein (Homo sapiens), P35219 (parent)
# chain: MADLSFIEDTVAFPEKEEDEEEEEEGVEWGYEEGVEWGLVFPDANGEYQSPINLNSREARYDPSLLDVRLSPNYVVCRDCEVTNDGHTIQVILKSKSVLSGGPLPQGHEFELYEVRFHWGRENQRGSEHTVNFKAFPMELHLIHWNSTLFGSIDEAVGKPHGIAIIALFVQIGKEHVGLKAVTEILQDIQYKGKSKTIPCFNPNTLLPDPLLRDYWVYEGSLTIPPCSEGVTWILFRYPLTISQLQIEEFRRLRTHVKGAELVEGCDGILGDNFRPTQPLSDRVIRAAFQ
# partner: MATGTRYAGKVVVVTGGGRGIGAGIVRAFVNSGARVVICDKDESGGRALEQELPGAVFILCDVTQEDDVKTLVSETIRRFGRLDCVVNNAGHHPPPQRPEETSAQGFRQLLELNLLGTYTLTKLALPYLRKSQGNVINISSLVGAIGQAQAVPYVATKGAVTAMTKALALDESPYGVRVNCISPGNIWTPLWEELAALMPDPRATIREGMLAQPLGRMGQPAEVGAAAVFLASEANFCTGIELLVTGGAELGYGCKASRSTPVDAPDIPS
# B7: Inactive peptidyl-prolyl cis-trans isomerase FKBP6 (Homo sapiens), O75344 (parent)
# chain: MGGSALNQGVLEGDDAPGQSLYERLSQRMLDISGDRGVLKDVIREGAGDLVAPDASVLVKYSGYLEHMDRPFDSNYFRKTPRLMKLGEDITLWGMELGLLSMRRGELARFLFKPNYAYGTLGCPPLIPPNTTVLFEIELLDFLDCAESDKFCALSAEQQDQFPLQKVLKVAATEREFGNYLFRQNRFYDAKVRYKRALLLLRRRSAPPEEQHLVEAAKLPVLLNLSFTYLKLDRPTIALCYGEQALIIDQKNAKALFRCGQACLLLTEYQKARDFLVRAQKEQPFNHDINNELKKLASCYRDYVDKEKEMWHRMFAPCGDGSTAGES
# B8: U4/U6 small nuclear ribonucleoprotein Prp31 (Homo sapiens), Q8WWY3 (parent)
# chain: MSLADELLADLEEAAEEEEGGSYGEEEEEPAIEDVQEETQLDLSGDSVKTIAKLWDSKMFAEIMMKIEEYISKQAKASEVMGPVEAAPEYRVIVDANNLTVEIENELNIIHKFIRDKYSKRFPELESLVPNALDYIRTVKELGNSLDKCKNNENLQQILTNATIMVVSVTASTTQGQQLSEEELERLEEACDMALELNASKHRIYEYVESRMSFIAPNLSIIIGASTAAKIMGVAGGLTNLSKMPACNIMLLGAQRKTLSGFSSTSVLPHTGYIYHSDIVQSLPPDLRRKAARLVAAKCTLAARVDSFHESTEGKVGYELKDEIERKFDKWQEPPPVKQVKPLPAPLDGQRKKRGGRRYRKMKERLGLTEIRKQANRMSFGEIEEDAYQEDLGFSLGHLGKSGSGRVRQTQVNEATKARISKTLQRTLQKQSVVYGGKSTIRDRSSGTASSVAFTPLQGLEIVNPQAAEKKVAEANQKYFSSMAEFLKVKGEKSGLMST
# partner: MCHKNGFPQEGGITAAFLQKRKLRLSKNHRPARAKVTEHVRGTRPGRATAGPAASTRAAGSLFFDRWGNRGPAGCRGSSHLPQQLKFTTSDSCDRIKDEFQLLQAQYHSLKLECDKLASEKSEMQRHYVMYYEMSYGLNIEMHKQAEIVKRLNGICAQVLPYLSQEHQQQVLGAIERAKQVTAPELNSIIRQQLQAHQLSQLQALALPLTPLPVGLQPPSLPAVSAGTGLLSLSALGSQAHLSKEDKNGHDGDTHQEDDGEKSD
# B9: von Hippel-Lindau disease tumor suppressor (Homo sapiens), P40337-2 (parent)
# chain: MPRRAENWDEAEVGAEEAGVEEYGPEEDGGEESGAEESGPEESGPEELGAEEEMEAGRPRPVLRSVNSREPSQVIFCNRSPRVVLPVWLNFDGEPQPYPTLPPGTGRRIHSYRVYTLKERCLQVVRSLVKPENYRRLDIVRSLYEDLEDHPNVQKDLERLTQERIAHQRMGD
# B10: Fibulin-5 (Homo sapiens), Q9UBX5 (parent)
# chain: B5 chain
# Variants of: B1
# Conditions: with RAB3IP
row,Variant,effect of a mutation on the interaction
1,N223S,with no effect

# Variants of: B2
# Conditions: with gmcl1_human GMCL1, Q96IK5
row,Variant,effect of a mutation on the interaction
1,P151L,with no effect
2,K370E,with no effect
3,L626P,with no effect
4,C266R,with no effect

# Variants of: B3
# Conditions: with sdcb1_human SDCBP
row,Variant,effect of a mutation on the interaction
1,V244M,disrupting interaction strength

# Variants of: B4
# Conditions: with lzts2_human LZTS2, Q9BRK4
# Target sequence in this assay (Q9BRK4 whole entry): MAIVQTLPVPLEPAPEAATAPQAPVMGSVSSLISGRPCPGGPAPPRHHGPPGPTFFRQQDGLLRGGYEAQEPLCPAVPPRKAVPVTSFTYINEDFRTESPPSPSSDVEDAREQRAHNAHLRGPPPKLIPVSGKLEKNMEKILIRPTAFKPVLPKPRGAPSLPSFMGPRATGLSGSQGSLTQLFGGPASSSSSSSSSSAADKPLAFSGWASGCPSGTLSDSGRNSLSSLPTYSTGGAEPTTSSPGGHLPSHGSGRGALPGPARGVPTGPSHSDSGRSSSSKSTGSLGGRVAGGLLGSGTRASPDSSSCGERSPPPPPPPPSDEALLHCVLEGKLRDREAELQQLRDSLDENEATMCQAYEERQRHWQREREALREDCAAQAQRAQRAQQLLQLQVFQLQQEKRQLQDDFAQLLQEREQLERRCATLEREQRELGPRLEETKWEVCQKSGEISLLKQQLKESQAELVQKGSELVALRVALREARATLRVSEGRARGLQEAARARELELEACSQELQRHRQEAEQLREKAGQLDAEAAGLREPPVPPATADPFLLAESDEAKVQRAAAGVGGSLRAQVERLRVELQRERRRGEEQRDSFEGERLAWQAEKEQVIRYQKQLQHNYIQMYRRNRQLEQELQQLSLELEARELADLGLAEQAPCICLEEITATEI
row,Variant,effect of a mutation on the interaction
1,D29G,disrupting interaction strength
2,Q461E,with no effect
3,V98I,with no effect

# Variants of: B5
# Conditions: with pch2_human TRIP13, Q15645
row,Variant,effect of a mutation on the interaction
1,V60L,disrupting interaction strength

# Variants of: B6
# Conditions: with dhb14_human HSD17B14, Q9BPX1
row,Variant,effect of a mutation on the interaction
1,S100P,disrupting interaction strength

# Variants of: B7
# Conditions: with lzts2_human LZTS2, Q9BRK4
# Target sequence in this assay (Q9BRK4 whole entry): as above
row,Variant,effect of a mutation on the interaction
1,F72L,disrupting interaction strength
2,R202H,with no effect

# Variants of: B7
# Conditions: with meox2_human MEOX2, P50222
# Target sequence in this assay (P50222 whole entry): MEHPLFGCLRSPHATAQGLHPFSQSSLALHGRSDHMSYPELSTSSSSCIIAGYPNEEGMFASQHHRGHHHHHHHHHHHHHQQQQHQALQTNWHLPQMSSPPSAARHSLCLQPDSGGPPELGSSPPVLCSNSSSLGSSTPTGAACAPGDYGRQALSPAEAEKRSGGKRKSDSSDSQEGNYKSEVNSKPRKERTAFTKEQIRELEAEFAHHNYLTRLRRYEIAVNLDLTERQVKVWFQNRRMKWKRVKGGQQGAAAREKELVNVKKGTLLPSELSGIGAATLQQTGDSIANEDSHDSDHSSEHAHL
row,Variant,effect of a mutation on the interaction
1,F72L,disrupting interaction strength
2,R202H,with no effect

# Variants of: B8
# Conditions: with TLE5, Q08117-2
row,Variant,effect of a mutation on the interaction
1,L107V,with no effect

# Variants of: B9
# Conditions: with mdfi_human MDFI
row,Variant,effect of a mutation on the interaction
1,S38P,disrupting interaction strength
2,S111I,disrupting interaction strength

# Variants of: B10
# Conditions: with otx1_human OTX1, P32242
# Sequence of otx1_human OTX1, P32242 (P32242 whole entry): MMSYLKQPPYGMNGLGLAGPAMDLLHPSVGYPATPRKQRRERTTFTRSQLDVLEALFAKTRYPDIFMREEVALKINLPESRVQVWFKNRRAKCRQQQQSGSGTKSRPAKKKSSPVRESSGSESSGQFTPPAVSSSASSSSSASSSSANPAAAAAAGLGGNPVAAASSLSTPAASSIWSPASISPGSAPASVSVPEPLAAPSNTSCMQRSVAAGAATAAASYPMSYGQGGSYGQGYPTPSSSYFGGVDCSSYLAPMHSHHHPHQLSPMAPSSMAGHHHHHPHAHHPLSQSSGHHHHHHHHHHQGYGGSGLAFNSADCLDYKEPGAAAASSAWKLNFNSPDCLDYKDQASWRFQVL
row,Variant,effect of a mutation on the interaction
1,V60L,disrupting interaction strength

# Variants of: B10
# Conditions: with meox2_human MEOX2, P50222
# Target sequence in this assay (P50222 whole entry): as the sequence (P50222 whole entry) above
row,Variant,effect of a mutation on the interaction
1,V60L,disrupting interaction strength
